In general, Kd refers to the free concentration of one partner at which half of the binding sites on the other are occupied at equilibrium, for simple one-to-one binding. The term koff denotes the first-order rate constant of dissociation. For orientation: kon means a measure of how fast the partners come together. By EC50 (read off the curve) is commonly meant the concentration giving half of the maximal effect.

Changes are numbered by the printed parent chain.

This note sets out measurements from patent US20230257467A1 (DRAGONFLY THERAPEUTICS, published 2023).

The target in assay [1] is T1, recombinant human EGFR-His (human, UniProt P00533 25-645).
T1 construct: also called epidermal growth factor receptor; ErbB-1; not shown: His tag (EGFR-His)
Kind of assay: SPR, single point mutant scFv constructs. (In general: Surface plasmon resonance follows binding to a sensor surface in real time, without labels.)

Assay [2] deals with T2, recombinant rhesus EGFR-His (rhesus macaque, UniProt P55245 25-645, limits assumed).
T2 construct: also called Rhesus macaque EGFR; not shown: His tag (EGFR-His)
Kind of assay: SPR, single point mutant scFv constructs.

In assay [3] the target is T1, recombinant human EGFR-His. Kind of assay: SPR, combination mutant scFv constructs.
Assay [4] has as its target T2, recombinant rhesus EGFR-His. Kind of assay: SPR, combination mutant scFv constructs.
The target of assay [5] is T1, recombinant human EGFR-His. Kind of assay: SPR, Biacore 8K, 37 C, TriNKET captured on anti-hFc IgG chip, EGFR-His injected, N=4; column head prints KD (nM) but the cells carry E-09. The protocol: (§1) Kinetics and affinities of EGFR binding constructs for recombinant human and rhesus EGFR were measured by SPR using a Biacore 8K instrument. Samples were captured on the anti-hFc IgG chip and a range of concentrations of human or rhesus recombinant EGFR-His was injected over captured test articles. Experiments were performed at physiological temperature of 37° C. Data were analyzed using Biacore 8K Insight Evaluation software (GE Healthcare).

Assay [6] concerns the target T3, EGFR expressed on H2172 human cancer cells (human, UniProt P00533 25-1210).
T3 construct: whole, on cells; also called EGFR-positive H2172 cancer cells; EGFR+ cells
Kind of assay: flow cytometry on EGFR-positive H2172 cells, 4 C for 0.5 h, fluorophore-conjugated anti-human IgG secondary antibody. On the procedure:
This example was designed to assess the binding affinity of the EGFR-targeting TriNKETs to EGFR expressed on cell surface. The H2172 human cancer cell line, derived from non-small cell lung carcinoma, was used. […] Cells were analyzed by flow cytometry and fold MFI over secondary-only controls reported.
(In general: In flow cytometry, cells or beads pass a laser one at a time.)

The target of assay [7] is T1, recombinant human EGFR-His. Kind of assay: SPR, Biacore 8K, 37 C, TriNKET captured on anti-hFc IgG chip, EGFR-His injected, N=4. On the procedure: as §1

Regarding PANI-L-D92R (scFv), in assay [1], the Kd is 3.27 nM, the koff is 0.000839 s⁻¹ and the kon came to 256000 M⁻¹ s⁻¹. For the same molecule, in assay [2], the Kd was found to be 5.09 nM, the koff was 0.00096 s⁻¹ and the kon is 189000 M⁻¹ s⁻¹.

B1: PANI-H_S62R-L_F87Y-L_D92R (scFv, V domains shown)
VH: QVQLQESGPGLVKPSETLSLTCTVSGGSVSSGDYYWTWIRQSPGKCLEWIGHIYYSGNTNYNPRLKSRLTISIDTSKTQFSLKLSSVTAADTAIYYCVRDRVTGAFDIWGQGTMVTVSS
VL: DIQMTQSPSSLSASVGDRVTITCQASQDISNYLNWYQQKPGKAPKLLIYDASNLETGVPSRFSGSGSGTDFTFTISSLQPEDIATYYCQHFRHLPLAFGCGTKVEIK
notes: also called EGFR-scFv-3
As for B1, in assay [3], the Kd worked out at 3.38 nM, the koff turned out to be 0.00099 s⁻¹ and the kon came to 293000 M⁻¹ s⁻¹. For the same molecule, in assay [4], the Kd was found to be 5.36 nM, the koff worked out at 0.00112 s⁻¹ and the kon came to 209000 M⁻¹ s⁻¹.

B2: EGFR-TriNKET-2 (bispecific antibody, human IgG1, kappa)
chain: DIQMTQSPSSLSASVGDRVTITCQASQDISNYLNWYQQKPGKAPKLLIYDASNLETGVPSRFSGSGSGTDFTFTISSLQPEDIATYYCQHFDHLPLAFGCGTKVEIKGGGGSGGGGSGGGGSGGGGSQVQLQESGPGLVKPSETLSLTCTVSGGSVSSGDYYWTWIRQSPGKCLEWIGHIYYSGNTNYNPRLKSRLTISIDTSKTQFSLKLSSVTAADTAIYYCVRDRVTGAFDIWGQGTMVTVSSGSDKTHTCPPCPAPELLGGPSVFLFPPKPKDTLMISRTPEVTCVVVDVSHEDPEVKFNWYVDGVEVHNAKTKPREEQYNSTYRVVSVLTVLHQDWLNGKEYKCKVSNKALPAPIEKTISKAKGQPREPRVYTLPPCRDELTKNQVSLTCLVKGFYPSDIAVEWESNGQPENNYKTTPPVLVSDGSFTLYSKLTVDKSRWQQGNVFSCSVMHEALHNHYTQKSLSLSPG
heavy: EVQLVESGGGLVKPGGSLRLSCAASGFTFSSYSMNWVRQAPGKGLEWVSSISSSSSYIYYADSVKGRFTISRDNAKNSLYLQMNSLRAEDTAVYYCARGAPIGAAAGWFDPWGQGTLVTVSSASTKGPSVFPLAPSSKSTSGGTAALGCLVKDYFPEPVTVSWNSGALTSGVHTFPAVLQSSGLYSLSSVVTVPSSSLGTQTYICNVNHKPSNTKVDKKVEPKSCDKTHTCPPCPAPELLGGPSVFLFPPKPKDTLMISRTPEVTCVVVDVSHEDPEVKFNWYVDGVEVHNAKTKPREEQYNSTYRVVSVLTVLHQDWLNGKEYKCKVSNKALPAPIEKTISKAKGQPREPQVCTLPPSRDELTENQVSLTCLVKGFYPSDIAVEWESNGQPENNYKTTPPVLDSDGSFFLYSWLTVDKSRWQQGNVFSCSVMHEALHNHYTQKSLSLSPG
light: DIQMTQSPSSVSASVGDRVTITCRASQGISSWLAWYQQKPGKAPKLLIYAASSLQSGVPSRFSGSGSGTDFTLTISSLQPEDFATYYCQQGVSFPRTFGGGTKVEIKRTVAAPSVFIFPPSDEQLKSGTASVVCLLNNFYPREAKVQWKVDNALQSGNSQESVTEQDSKDSTYSLSSTLTLSKADYEKHKVYACEVTHQGLSSPVTKSFNRGEC
notes: F3' format with three polypeptides: EGFR-scFv-2 (VL-VH)-Fc, A49MI-VH-CH1-Fc and A49MI-VL-CL; also called EGFR2
Take B2: the Kd in assay [5] turned out to be 1.98 nM. Further, the “EC50 (read off the curve)” value in assay [6] is ~0.5 nM. Moreover, in assay [7], the koff came out at 0.000988 s⁻¹ and the kon came out at 500000 M⁻¹ s⁻¹.

B3: EGFR-TriNKET-3 (bispecific antibody, human IgG1, kappa)
chain: B2 chain with D92R
heavy: B2 heavy
light: B2 light
notes: F3' format with three polypeptides: EGFR-scFv-3 (VL-VH)-Fc, A49MI-VH-CH1-Fc and A49MI-VL-CL; also called EGFR3
In the case of B3, the Kd in assay [5] came to 3.16 nM. Moreover, in assay [6], the “EC50 (read off the curve)” value is ~0.9 nM. Also, in assay [7], the koff is 0.00093 s⁻¹ and the kon came out at 295000 M⁻¹ s⁻¹.

B4: EGFR-TriNKET-4 (bispecific antibody, human IgG1, kappa)
chain: B2 chain with D92R, R191S
heavy: B2 heavy
light: B2 light
notes: F3' format with three polypeptides: EGFR-scFv-4 (VL-VH)-Fc, A49MI-VH-CH1-Fc and A49MI-VL-CL; also called EGFR4
B4: in assay [5], the Kd amounted to 2.36 nM. Also, in assay [7], the off-rate (koff) amounted to 0.000745 s⁻¹ and the kon came to 316000 M⁻¹ s⁻¹.

B5: EGFR-TriNKET-1 (bispecific antibody)
scFv-Fc: B2 chain with Y87F, R191S
heavy: B2 heavy
light: B2 light
notes: also called EGFR1
Take B5: the “EC50 (read off the curve)” value in assay [6] is ~0.3 nM. In assay [7], the off-rate (koff) is 0.000967 s⁻¹ and the kon was 592000 M⁻¹ s⁻¹.
